# T1: MS2 coat protein (bacteriophage MS2), P03612
# T1 chain: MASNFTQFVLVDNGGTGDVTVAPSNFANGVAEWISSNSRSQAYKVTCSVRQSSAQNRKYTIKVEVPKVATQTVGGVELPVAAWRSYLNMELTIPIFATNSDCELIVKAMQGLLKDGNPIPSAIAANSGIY
# B1: MS2 coat protein, P03612 1-130 (natural protein)
# chain: MASNFTQFVLVDNGGTGDVTVAPSNFANGVAEWISSNSRSQAYKVTCSVRQSSAQNRKYTIKVEVPKVATQTVGGVELPVAAWRSYLNMELTIPIFATNSDCELIVKAMQGLLKDGNPIPSAIAANSGIY
# Target: T1, MS2 coat protein (bacteriophage MS2), …
# Test: native MS + AUC
# Settings: remark: other sources report otherwise
binder,measurement,value
B1,stoichiometry N,2
